Assay [1] addresses T1, puroindoline A (Triticum aestivum, UniProt P33432 29-148).
T1 construct: puroindoline A (PINA) of Triticum aestivum, purified from grain of cv; about 13 kDa, five disulfide bonds; matured by cleavages at both N- and C-termini, with forms that differ at the C-terminus; The Pina allele of cv; also called PINA; source: purified from the hard wheat Triticum aestivum cultivar Recital
T1 sequence (looked up): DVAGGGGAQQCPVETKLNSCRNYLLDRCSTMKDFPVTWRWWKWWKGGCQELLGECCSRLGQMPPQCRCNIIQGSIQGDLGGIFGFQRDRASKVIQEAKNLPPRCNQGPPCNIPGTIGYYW
Description: SPR; same sensorgrams as the kinetic fit (immobilised (PQQPY)8, PINA 2 to 20 uM flowed, 25°C, Hepes buffer pH 7.4); steady-state fit, 1:1 Langmuir model. As to conditions: both partners purified. For orientation: SPR reads the build-up and loss of mass on a sensor chip optically.

For assay [2], the target named is T1, puroindoline A. Description: SPR; Biacore X100, CM5 chip; gliadin or (PQQPY)8 covalently immobilised, PINA flowed at 10 uL/min, 25°C, Hepes buffer pH 7.4 (10 mM Hepes, 150 mM NaCl, 3.4 mM EDTA, 0.005% P20); global kinetic fit, 1:1 Langmuir model, KD=kd/ka. The note with it: both partners purified.

Drawing on article doi:10.1101/830265, “Relationships between puroindoline-prolamin interactions and wheat grain hardness” (bioRxiv, 2019), this text covers Kd for one molecule.

A word on the Kd: it is the free concentration of one partner at which half of the binding sites on the other are occupied at equilibrium, for simple one-to-one binding. The low end stands for a tighter complex, the high end for a looser complex.

B1: recombinant polypeptide (PQQPY)8 (peptide)
chain: PQQPYPQQPYPQQPYPQQPYPQQPYPQQPYPQQPYPQQPY
notes: eight repeats of the pentapeptide PQQPY, written out from the printed formula (PQQPY)8; mimics the consensus repeat domain of gliadins; measured mass 4924.5 Da (theoretical 4924.3 Da); Released from thioredoxin-DP-(PQQPY)8 by formic acid; the printed theoretical mass of 4924.3 Da fits the 40 residues of eight repeats with no further residue; also called (Pro-Gln-Gln-Pro-Tyr)8; repetitive domain …
Consider B1, for which the results for the Kd in assay [1] and in assay [2] were 7.22 µM and 0.29 µM, respectively.
